For the assay, the target named is recombinant SmFGFRA extracellular ligand binding domain (rSmFGFRA-L) (Schistosoma mansoni). The assay is described as follows: BLI; Octet RED 96; biotinylated rSmFGFRA-L immobilised on Streptavidin Biosensors, human aFGF/bFGF in dilution series as analyte; kinetic buffer (PBS with 15 mM NaCl, 0.1 mg/ml BSA, 0.002% Tween-20); association 1000 s, dissociation 1000 s; 30°C, 1000 rpm; double reference subtraction.

Consider 2 substances from paper PMC9257043.

By Kd is commonly meant the constant that tells how readily two partners part at equilibrium.

Turning to “human acidic FGF (aFGF) (from UniProt P05230 16-155) (ligand)”, the Kd amounted to 5.81 nM.

With “human basic FGF (bFGF) (from UniProt P09038 143-288) (ligand)”, the Kd stood at 0.36 nM.
